Our source for the IC50 for inhibition of rrnB P1 transcription, multiround in vitro transcription with E. coli RNAP (4 nM to 2,000 nM factor) values is publication PMC9239242.

The test has as its target E. coli RNA polymerase holoenzyme (native) (E. coli) (UniProt P0A8V2).

In turn, “P2 Orf82 (Orf82 from Enterobacteria phage P2) (natural protein)” yielded an IC50 for inhibition of rrnB P1 transcription, multiround in vitro transcription with E. coli RNAP (4 nM to 2,000 nM factor) of 250 nM.
